Twelve molecules from patent US20250051476A1 (ABDERA THERAPEUTICS, published 2025) can be followed below.

In experiment [1] the target is T1, human DLL3 (human, UniProt Q9NYJ7 27-492, limits assumed).
T1 construct: also called hDLL3; Delta-like protein 3
T1 sequence (looked up): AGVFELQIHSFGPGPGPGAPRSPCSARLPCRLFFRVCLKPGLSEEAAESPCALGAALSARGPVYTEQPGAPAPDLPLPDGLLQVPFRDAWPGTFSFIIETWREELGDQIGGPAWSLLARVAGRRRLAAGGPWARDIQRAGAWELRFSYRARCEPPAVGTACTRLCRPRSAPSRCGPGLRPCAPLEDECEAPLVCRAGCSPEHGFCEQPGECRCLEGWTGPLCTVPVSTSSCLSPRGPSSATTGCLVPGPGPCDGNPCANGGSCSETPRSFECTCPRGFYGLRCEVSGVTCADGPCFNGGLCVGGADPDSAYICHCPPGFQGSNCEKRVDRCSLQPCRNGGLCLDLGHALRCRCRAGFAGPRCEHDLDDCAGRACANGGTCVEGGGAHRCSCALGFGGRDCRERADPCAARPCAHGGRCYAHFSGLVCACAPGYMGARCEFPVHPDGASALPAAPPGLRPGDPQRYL
Nature of the experiment: ELISA.

Experiment [2] addresses T2, mouse DLL3 (mouse, UniProt O88516 25-477, limits assumed).
T2 construct: also called mDLL3; murine DLL3
T2 sequence (looked up): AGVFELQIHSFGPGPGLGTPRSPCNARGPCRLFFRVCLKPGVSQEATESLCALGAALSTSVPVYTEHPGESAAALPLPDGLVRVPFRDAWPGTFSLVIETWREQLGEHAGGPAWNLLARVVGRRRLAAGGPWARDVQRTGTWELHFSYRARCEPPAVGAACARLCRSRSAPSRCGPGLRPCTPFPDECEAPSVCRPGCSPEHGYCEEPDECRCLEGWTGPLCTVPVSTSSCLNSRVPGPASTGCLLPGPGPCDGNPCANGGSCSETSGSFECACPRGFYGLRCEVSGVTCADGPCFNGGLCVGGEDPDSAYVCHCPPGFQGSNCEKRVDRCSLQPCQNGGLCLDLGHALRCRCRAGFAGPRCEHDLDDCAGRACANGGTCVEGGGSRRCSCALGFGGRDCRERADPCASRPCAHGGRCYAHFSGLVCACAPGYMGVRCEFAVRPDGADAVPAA
Nature of the experiment: ELISA.

B1: 100_zu4 (Fc fusion)
chain: QVQLVESGGGLVQPGGSLRLSCAASGIVFNSDVMGWYRQAPGQPRELVATITGGGSTNYATSVKGRFTISRDNSKNTLYLQMNSLRAEDTAVYYCAARRGDSMLAFWGQGTLVTVSSEPKSSDKTHTCPPCPAPEAEGAPSVFLFPPKPKDTLMISRTPEVTCVVVDVSHEDPEVKFNWYVDGVEVHNAKTKPREEQYNSTYRVVSVLTVLHQDWLNGKEYKCKVSNKALPSSIEKTISKAKGQPREPQVYTLPPSREEMTKNQVSLTCLVKGFYPSDIAVEWESNGQPENNYKTTPPVLDSDGSFFLYSKLTVDKSRWQQGNVFSCSVMHEALHNQYTQKSLSLSPG
notes: Humanized VHH-Fc
Turning to B1, the binding result in experiment [1] and in experiment [2] was “no binding” throughout.

B2: 100_zu3 (Fc fusion)
chain: QVQLVESGGGLVQPGGSLRLSCAASGIVFNSDVMGWYRQAPGQGLELVATITGGGSTNYATSVKGRFTISRDNSKNTLYLQMNSLRAEDTAVYYCAARRGDSMLAFWGQGTLVTVSSEPKSSDKTHTCPPCPAPEAEGAPSVFLFPPKPKDTLMISRTPEVTCVVVDVSHEDPEVKFNWYVDGVEVHNAKTKPREEQYNSTYRVVSVLTVLHQDWLNGKEYKCKVSNKALPSSIEKTISKAKGQPREPQVYTLPPSREEMTKNQVSLTCLVKGFYPSDIAVEWESNGQPENNYKTTPPVLDSDGSFFLYSKLTVDKSRWQQGNVFSCSVMHEALHNQYTQKSLSLSPG
notes: Humanized VHH-Fc
Take B2: the binding result in experiment [1] and in experiment [2] was “no binding” each time.

B3: 100_zu2 (Fc fusion)
chain: QVQLVESGGGLVQPGGSLRLSCAASGIVFNSDVMGWFRQAPGQGLELVATITGGGSTNYATSVKGRFTISRDNSKNTLYLQMNSLRAEDTAVYYCAARRGDSMLAFWGQGTLVTVSSEPKSSDKTHTCPPCPAPEAEGAPSVFLFPPKPKDTLMISRTPEVTCVVVDVSHEDPEVKFNWYVDGVEVHNAKTKPREEQYNSTYRVVSVLTVLHQDWLNGKEYKCKVSNKALPSSIEKTISKAKGQPREPQVYTLPPSREEMTKNQVSLTCLVKGFYPSDIAVEWESNGQPENNYKTTPPVLDSDGSFFLYSKLTVDKSRWQQGNVFSCSVMHEALHNQYTQKSLSLSPG
notes: Humanized VHH-Fc
Consider B3, for which the binding result in experiment [1] and in experiment [2] was “no binding” throughout.

B4: 24_zu4 (Fc fusion)
chain: QVQLVESGGGLVQPGGSLRLSCAASGFTFSSYRINWYRQAPGQGRELVASITDTGSTNYADSVKGRFTISRDNSKNTLYLQMNSLRAEDTAVYYCAAPTIAAYWGQGTLVTVSSEPKSSDKTHTCPPCPAPEAEGAPSVFLFPPKPKDTLMISRTPEVTCVVVDVSHEDPEVKFNWYVDGVEVHNAKTKPREEQYNSTYRVVSVLTVLHQDWLNGKEYKCKVSNKALPSSIEKTISKAKGQPREPQVYTLPPSREEMTKNQVSLTCLVKGFYPSDIAVEWESNGQPENNYKTTPPVLDSDGSFFLYSKLTVDKSRWQQGNVFSCSVMHEALHNQYTQKSLSLSPG
notes: Humanized VHH-Fc
For B4, the binding result in experiment [1] and in experiment [2] was “no binding” throughout.

B5: 24_zu2 (Fc fusion)
chain: QVQLVESGGGLVQPGGSLRLSCAASGFTFSSYRINWFRQAPGQGLELVASITDTGSTNYADSVKGRFTISRDNSKNTLYLQMNSLRAEDTAVYYCAAPTIAAYWGQGTLVTVSSEPKSSDKTHTCPPCPAPEAEGAPSVFLFPPKPKDTLMISRTPEVTCVVVDVSHEDPEVKFNWYVDGVEVHNAKTKPREEQYNSTYRVVSVLTVLHQDWLNGKEYKCKVSNKALPSSIEKTISKAKGQPREPQVYTLPPSREEMTKNQVSLTCLVKGFYPSDIAVEWESNGQPENNYKTTPPVLDSDGSFFLYSKLTVDKSRWQQGNVFSCSVMHEALHNQYTQKSLSLSPG
notes: Humanized VHH-Fc
In the case of B5, the binding result in experiment [1] and in experiment [2] was “no binding” each time.

B6: 24_zu3 (Fc fusion)
chain: QVQLVESGGGLVQPGGSLRLSCAASGFTFSSYRINWYRQAPGQGLELVASITDTGSTNYADSVKGRFTISRDNSKNTLYLQMNSLRAEDTAVYYCAAPTIAAYWGQGTLVTVSSEPKSSDKTHTCPPCPAPEAEGAPSVFLFPPKPKDTLMISRTPEVTCVVVDVSHEDPEVKFNWYVDGVEVHNAKTKPREEQYNSTYRVVSVLTVLHQDWLNGKEYKCKVSNKALPSSIEKTISKAKGQPREPQVYTLPPSREEMTKNQVSLTCLVKGFYPSDIAVEWESNGQPENNYKTTPPVLDSDGSFFLYSKLTVDKSRWQQGNVFSCSVMHEALHNQYTQKSLSLSPG
notes: Humanized VHH-Fc
In the case of B6, the binding result in experiment [1] and in experiment [2] was “no binding” in each case.

B7: 24_zu1 (Fc fusion)
chain: QVQLVESGGGLVQPGGSLRLSCAASGFTFSSYRINWFRQAPGQGLEAVASITDTGSTNYADSVKGRFTISRDNSKNTLYLQMNSLRAEDTAVYYCAAPTIAAYWGQGTLVTVSSEPKSSDKTHTCPPCPAPEAEGAPSVFLFPPKPKDTLMISRTPEVTCVVVDVSHEDPEVKFNWYVDGVEVHNAKTKPREEQYNSTYRVVSVLTVLHQDWLNGKEYKCKVSNKALPSSIEKTISKAKGQPREPQVYTLPPSREEMTKNQVSLTCLVKGFYPSDIAVEWESNGQPENNYKTTPPVLDSDGSFFLYSKLTVDKSRWQQGNVFSCSVMHEALHNQYTQKSLSLSPG
notes: Humanized VHH-Fc
For B7, the binding result in experiment [1] was “binds”.

B8: 24_zu5 (Fc fusion)
chain: QVQLVESGGGLVQPGGSLRLSCAASGFTFSSYRINWYRQPPGKGRELVGSITDTGSTNYADSVKGRFTISRDNSKNTLYLQMNSLRAEDTAVYYCAAPTIAAYWGQGTLVTVSSEPKSSDKTHTCPPCPAPEAEGAPSVFLFPPKPKDTLMISRTPEVTCVVVDVSHEDPEVKFNWYVDGVEVHNAKTKPREEQYNSTYRVVSVLTVLHQDWLNGKEYKCKVSNKALPSSIEKTISKAKGQPREPQVYTLPPSREEMTKNQVSLTCLVKGFYPSDIAVEWESNGQPENNYKTTPPVLDSDGSFFLYSKLTVDKSRWQQGNVFSCSVMHEALHNQYTQKSLSLSPG
notes: Humanized VHH-Fc
Turning to B8, the binding result in experiment [1] and in experiment [2] was “no binding” each time.

B9: 107_zu1 (Fc fusion)
chain: QVQLVESGGGLVQPGGSLRLSCAASDRTFSSYAVGWFRQAPGQGLEAVAAISWNGGRTLYTDSVTGRFTISRDNSKNTLYLQMNSLRAEDTAVYYCAARPAAPTRRLEYDYWGQGTLVTVSSEPKSSDKTHTCPPCPAPEAEGAPSVFLFPPKPKDTLMISRTPEVTCVVVDVSHEDPEVKFNWYVDGVEVHNAKTKPREEQYNSTYRVVSVLTVLHQDWLNGKEYKCKVSNKALPSSIEKTISKAKGQPREPQVYTLPPSREEMTKNQVSLTCLVKGFYPSDIAVEWESNGQPENNYKTTPPVLDSDGSFFLYSKLTVDKSRWQQGNVFSCSVMHEALHNQYTQKSLSLSPG
notes: Humanized VHH-Fc
With B9, the binding result in experiment [1] was “binds”.

B10: 186_zu3 (Fc fusion)
chain: QVQLVESGGGLVQPGGSLRLSCAASGFDFSTYTVNWYRQAPGQGLEKVARISSTGTTTNYANSAKGRFTISRDNSKNTLYLQMNSLRAEDTAVYYCAAERFDSNYWGQGTLVTVSSEPKSSDKTHTCPPCPAPEAEGAPSVFLFPPKPKDTLMISRTPEVTCVVVDVSHEDPEVKFNWYVDGVEVHNAKTKPREEQYNSTYRVVSVLTVLHQDWLNGKEYKCKVSNKALPSSIEKTISKAKGQPREPQVYTLPPSREEMTKNQVSLTCLVKGFYPSDIAVEWESNGQPENNYKTTPPVLDSDGSFFLYSKLTVDKSRWQQGNVFSCSVMHEALHNQYTQKSLSLSPG
notes: Humanized VHH-Fc
For B10, the values for the binding result in experiment [1] and in experiment [2] were “binds” and “no binding”, respectively.

B11: 186_zu5 (Fc fusion)
chain: QVQLVESGGGLVQPGGSLRLSCAASGFDFSTYTVNWYRQAPGKEREKVARISSTGTTTNYANSAKGRFTISRDNSKNTLYLQMNSLRAEDTAVYYCAAERFDSNYWGQGTLVTVSSEPKSSDKTHTCPPCPAPEAEGAPSVFLFPPKPKDTLMISRTPEVTCVVVDVSHEDPEVKFNWYVDGVEVHNAKTKPREEQYNSTYRVVSVLTVLHQDWLNGKEYKCKVSNKALPSSIEKTISKAKGQPREPQVYTLPPSREEMTKNQVSLTCLVKGFYPSDIAVEWESNGQPENNYKTTPPVLDSDGSFFLYSKLTVDKSRWQQGNVFSCSVMHEALHNQYTQKSLSLSPG
notes: Humanized VHH-Fc
In the case of B11, the binding result in experiment [1] was “binds”; in experiment [2] it was “no binding”.

B12: 186_zu4 (Fc fusion)
chain: QVQLVESGGGLVQPGGSLRLSCAASGFDFSTYTVNWYRQAPGQEREKVARISSTGTTTNYANSAKGRFTISRDNSKNTLYLQMNSLRAEDTAVYYCAAERFDSNYWGQGTLVTVSSEPKSSDKTHTCPPCPAPEAEGAPSVFLFPPKPKDTLMISRTPEVTCVVVDVSHEDPEVKFNWYVDGVEVHNAKTKPREEQYNSTYRVVSVLTVLHQDWLNGKEYKCKVSNKALPSSIEKTISKAKGQPREPQVYTLPPSREEMTKNQVSLTCLVKGFYPSDIAVEWESNGQPENNYKTTPPVLDSDGSFFLYSKLTVDKSRWQQGNVFSCSVMHEALHNQYTQKSLSLSPG
notes: Humanized VHH-Fc
As for B12, the binding result in experiment [1] is recorded as “binds”; in experiment [2], “no binding”.
